Data published in the DeepSol protein solubility set.

Assay: soluble on expression in E. coli; label from the status in PepcDB or PDB records

Row | Sequence | soluble on expression in E. coli
1 | MEINQKREEEDDDEMEWRRDGVKRDSNDFSNYCRQRSLSSDATIMSRQFFVYLIFHVLIDNVIARAPFTRDRPRGLGLLQLPTGMTDERSGPFFPGLYIAGDKAGQKPQTVPDVSLPGQTASFTGRSAFNPFTHMVSAVYTEDLVDAWGAGFAVNGVNNHGLNVRKNFDAFADAPLSSSDGMYQPFLSAASIGSEYDFSKIREVSGNFNLPIPGVNELFDFDGRFMVKGGGNGILNSAMEFPLTLSDPNERAPYTFKYLNYMADRHMHYGHVVPNVNLFVVGKDKIMERLMQNRLNPTMVG | not soluble
2 | MSLGINGFTAHAQKLSLIYNTLDSRDMPTRGLYAKAAIEGSAEFLGSDASYRHYEAELKGYFPLKEARYITVARVAYNQTLGSDVPFLERSILGGESTLRGYGRNRFIDSSYFLCNLEERIRLFRWSVFDVNTDWEVAPFIDLGAVMESLDKTRSKNFEFNPGIGFRAVVRPNIVGRVDIGVGNDGPAVFVGLGYPFEGHHHHHH | not soluble
3 | MSLYVDAGLQPLDKNNKKLVQVHIPEGSSNKQIAAVLEESNVIKSGMVFNYYVKFKNLTDFQAGYYQMSPSMTLDEIGEMLKEGGTPEPTKIADGKVTIPEGYDIDKIGEAIEKNTDFKKADFIALMKNEDFFNQMKAKYPDLLESAATAEGVRYRLEGYLFPATYDYYKKATLPEFVEQMIAKMNTVMEQYTPTIHAKNLTNQQVLTLASLVEKEGVKEADRKQIAQVFFNRLAADMPIQSDISILYALGEHKETVTYADLEVDSSYNLYKNTGYGPGPLDSPSEESIKAVLNPTPSDYLYFVADISTGKVYFSKTYEEHQVLVDQYVNNSSSEEGHHHHHH | soluble
4 | MPGSLPPNGESSWPKDVGIVALEIYFPSQYVDQEELEKFDGVSAGKYTIGLGQSKMGFCSDREDINSLCLTAVQRLMERNNLSYDCIGRLEVGTETIIDKSKSVKTVLMQLFEESGNTDVEGIDTTNACYGGTAALFNAVNWVESSSWDGRYALVVAGDIAVYATGSARPTGGAGAVAMLVGPNATLVFERGLRGTHMQHAYDFYKPDMESEYPVVDGKLSIQCYLSALDHCYSTYRKKIHAQWQKEGTEKPFTLNDFGFMIFHSPYCKLVQKSFARLLVNDFISDSNPNTESGVYVGLDSFRDLKLEETYFDRDVEKAFLKASTELFNEKTKTSLLVSKENGNMYTPSVYGCLASVLAQYSPQQLAGQRIGVFSYGSGFAATLYSLRVSQDAMPGSSLDKLTSSLSDLKARLDSRKNVSPSIFADNMKLREDTHHLANYVPQGSVDDLFPGTWYLVRVDEKHRRFYARSSLMRDGPLDAAPESVHSSTANEHFPSPAKKVPRIPPAAEAEPISVTNGGH | soluble
5 | MSLSDKKVLCVEDEEVIRSNLMETLELFFDKVSGAKDGFEALEQAMCDTYDVFIFDISIPHLDGLEVLKRVRQFNKKTPIVILSAHKEQEYLWRAVELKITRYLTKPYDKNSLIKALEEVALELMDYHPLFQISPLHSYDFCRKAMTCKGEMVYLSKKREPTEGHHHHHH | not soluble
6 | MAHHHHHHMLPSVMDRYESYDFGKELLSLLKTASSTPGAHMGVFTGMGLLLAKYRPEKLLEHVNMHAKKINTHKMIAACEEYHLWLVLRVLHVNNEDWLAAATTMMHHHVDAWDHDVFKTVVSHLGSSDLVYNSISFYIQTNPQLLDDFLTSMFKTLDPERVLLEVKKLAPVHFIRQYLESAQERNSRRVNEAINKLYMEEEDFTALRDSVERFDNFDSAELSAELEKMELFEFRKIALFLHRRNKRFTHAVAVAKENKLYQDAIETAAESANPQIVEDLLDFFVVDHPDCFVACLYTCYDYLTPQVVMEKAWLNKRTDLAMPYFIQVIQDYTTKLSRMEKSMMDAQQLAKEAARRAGPLHTGANDPLMIQAGPANPMGGAMPMPMPMPMPMPMMGGVPPGNYGPPPQFDNRRPY | not soluble
7 | MAHHHHHHMLNVLCDIKRYNGFDYYKCPRTILKKTCNFVKRENVADSIFIGNEIEFFIFDKVNFGLDDYDSYLKVYDREAFSCKNGGSGGSAVGSGSHDTTAGVACIACAGHVPPNDDSKKVKKKCGYFATDPYDTSNMIKLRICRILNSLNVHVQKYHHEVSTSQHEISLKYFDAVKNADNLIITKQVIKSTVHNFNRTATFMPKPLVSDNGSGLHCNISLWKDNKNIFFADDPSTFFLSKEAFYFMNGIIKHAKALQAFCNSTMNSYKRLVPGFETCQKLFYSFGSRNAVIRLSMINYSNPSEKRIEFRLPDYANSPHLVLAAIILAGYDGIKSKEQPLVPFESKDNNFFISSIFSNYVENTQNFKTLTHALEGYDTIHDVKKSPEFVNFFTCKEPESICFSLEESLDALEKDHAFLTVDGIFTEVRFVGKCGEAPNTVDTYLPTYPCVLPFVLPICLPHLFSPFFPTAGSH | not soluble
